The record followed here is publication PMC5173487 (Nature immunology, 2016).

The target of test [1] is T1, His-tagged EPRS (amino acids 1–196) (human (by GenBank NM_004446.2), UniProt P07814 1-196).
T1 sequence (looked up): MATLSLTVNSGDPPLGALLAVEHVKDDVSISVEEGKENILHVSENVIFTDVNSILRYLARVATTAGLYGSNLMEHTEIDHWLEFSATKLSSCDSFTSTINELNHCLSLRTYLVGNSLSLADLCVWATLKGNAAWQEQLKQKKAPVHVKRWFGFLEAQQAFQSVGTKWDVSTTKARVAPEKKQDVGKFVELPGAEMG
In words: pull-down.

In test [2] the target is GST-fused MAVS (amino acids 460–540) (UniProt Q7Z434 460-540). In words: pull-down.
Chain of GST-fused MAVS (amino acids 460–540) (Q7Z434 460-540): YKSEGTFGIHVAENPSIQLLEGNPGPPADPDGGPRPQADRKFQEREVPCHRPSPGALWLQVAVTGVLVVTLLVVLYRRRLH

B1: GST-fused PCBP2 (amino acids 11–82) (domain or fragment, UniProt Q15366 11-82, looked up)
chain: NVTLTIRLLMHGKEVGSIIGKKGESVKKMREESGARINISEGNCPERIITLAGPTNAIFKAFAMIIDKLEED
Turning to B1, the binding result in test [1] is on record as “binds”.

B2: His-tagged PCBP2 (amino acids 11–82) (domain or fragment, UniProt Q15366 11-82, looked up)
chain: B1 chain
Turning to B2, in test [2], the binding result is recorded as “binds”.
